Consider 17 sequences from the DeepSol protein solubility set.

The data set in a line: soluble on expression in E. coli; label from the status in PepcDB or PDB records.
Regarding “MRSISVGLDREESGSDGLCLGLVVLATLAAGFVAGSDVLRCWGFGPATGDVCLWVEAGFWRCPLPGGGADGQGPGFWDAALREARMFCRSCVGLRMIGWRR”, the “soluble on expression in E. coli” value is recorded as “not soluble”. Under “MRTFTWRKGSLSKVNTCYVLAGGKSKRFGEDKLLYEIKGKKVIERVYETAKSVFKEVYIVAKDREKFSFLNAPVVLDEFEESASIIGLYTALKHAKEENVFVLSGDLPLMKKETVLYVLENFKEPVSVAKTEKLHTLVGVYSKKLLEKIEERIKKGDYRIWALLKDVGYNEVEIPEELRYTLLNMNTKEDLKRILAIENHY” stands “soluble”; under “MRTHDDTWDIKTSVGTTAVMVAAARAAETDRPDALIRDPYAKLLVTNTGAGALWEAMLDPSMVAKVEAIDAEAAAMVEHMRSYQAVRTNFFDTYFNNAVIDGIRQFVILASGLDSRAYRLDWPTGTTVYEIDQPKVLAYKSTTLAEHGVTPTADRREVPIDLRQDWPPALRSAGFDPSARTAWLAEGLLMYLPATAQDGLFTEIGGLSAVGSRIAVETSPLHGDEWREQMQLRFRRVSDALGFEQAVDVQELIYHDENRAVVADWLNRHGWRATAQSAPDEMRRVGRWGDGVPMADDKDAFAEFVTAHRL”, “soluble”.

As for “MRTLYPEITPYQQGSLKVDDRHTLYFEQCGNPHGKPVVMLHGGPGGGCNDKMRRFHDPAKYRIVLFDQRGSGRSTPHADLVDNTTWDLVADIERLRTHLGVDRWQVFGGSWGSTLALAYAQTHPQQVTELVLRGIFLLRRFELEWFYQEGASRLFPDAWEHYLNAIPPVERADLMSAFHRRLTSDDEATRLAAAKAWSVWEGATSFLHVDEDFVTGHEDAHFALAFARIENHYFVNGGFFEVEDQLLRDAHRIADIPGVIVHGRYDVVCPLQSAWDLHKAWPKAQLQISPASGHSAFEPENVDALVRATDGFA”, the “soluble on expression in E. coli” value is on record as “soluble”. Under “MRTTSRALMYGLYDEFQISLKCPRSPPNSSFSICHAQAAFLSGVCEAMLCPLERVQVLLQTTIFHDKFKNTLHTFNRLRDYGYREYYRGFSVILIRNSLSNTIFFTLRDPLKQKIVGIPQAGRLPESLQQLIGDFVAGSLLGATISTAFFPLGVIKNHMQAKVGVKYESGFKVFRDVWQLRNRSLRGLYLGVHLNFTRSLVAWGIINSMYGILRRALAPFE” stands “not soluble”. With “MRVKTGVVRRRRHKKVLKLARGFYSGRRKHFRKAKEQLERSMYYAFRDRKQKKREFRSLWVVRINAACRMHNTSYSRFMHALKVANIELDRKVLADMAMNDMQAFTSVLESVKEHLLEHHHHHH”, the “soluble on expression in E. coli” value is on record as “soluble”. In the case of “MRVLVKLSGEALSGEGGRGFDPERVNYIVNEIKSAIEEGFKIGIVVGAGNLFRGVELKNLTMTRADQIGLLGTVMNSVYLKDIFERSGLKARIYSQIVNLPDVERVNYDSIESALRENSILIFAGGTSNPFFTTDTAAVLRAQEMRAKLVVKATKVDGVYDKDPKKFPDAKKIPHLTFSEAMKMGLKVMDAEAFALCKKLGITVKVINFFEPGTLLKALKGEDVGSTVVPD” it was “soluble”. Under “MRVQILKDFVKQHFPATPLLDYALEVEKITTSKKPNLILNVDGFIGVAFVDMLRNCGSFTREEADEYVDIGALNGIFVLGRSMGFIGHYLDQKRLKQGLYRHPWDDISYVLPEHMSM” stands “not soluble”; under “MRVRSETVNKPQSLRHALNKAVPYVRNNPDKLHLFVDNGSLVATGASSMSWEYRYTLNAVIEDFSGDQNLLMAPVLLWLRDNQPDAINNPALREKLFTFEVDILRNDVCDISLNLQLTERVLVSTDGSVSSVEAVAEPDEPEEMWTVKRG”, “not soluble”. With “MRVVAAHENLDFDALGSMVLAGRLYPGSVLALVGGVEGVLREVLPLLEDRLDLVPASEIPLDRVREVVLVDNARPERLGPLAALVGRVPFLVYDHHPRTPGDVPAVGGRVAPVGATVSLLVPLLLERGVALDPLEATLAYAGLWEDTGGFSFPSTTPEDLEAAGHLLRQGAEVARVRDWVRPRFGEEAREILSQLLKTAHLVERKGFRLLVARAREKGYVPALAPLAHTLLDLYEADGVLLALRLGGDTLLIARSKARLDVGRWLGALGGGGHARAAFARVRGKGRALARLLETLEAFLDPEPTLGQAMTAPVETLRPTSVREALRQLEERGYGAMPVVEPLGEGVRVLGLARRRDLRKAVRLGFGDHPVEGFLVRAVVLPPSTPLSQVEPRLREAGGRVLVGERAGEGWRLLGIYTRTDLYRSAPRPEPTLAERVLKALPSGVFRVVEALREAFPEGVYLVGGAVRDALLGRSGPDLDLAVGPGVEVARVAQFLVDRFGGSYGLHYAFGTARVRLPFGLVVDLAESREEVYPYPGALPEVRRAPIARDLERRDYSVNAMAVDLGGLAFLDPYGGLRDLEARLLRPLHPLAFVEDPTRVVRGARLAARLGFRFAEEVPRLLAPALLPEVVAGASRSRLREELLLTLEEEAFYRALALLAELGALKALYGLDLPPEAPFLRLRAEEGLGEARLLLLLFHQKDPLERAAWLALPGRLREGLALLLAASRGEEVPKEALGREPLRAAFLALFPEKEAWLKAERRVLMGRDLLKLGLKPGPKVGEILRRVAEARRRGEVRSFEEELALARKLLGDGTLALPE”, the “soluble on expression in E. coli” value is given as “soluble”. In the case of “MRVVVCGGGVIGACAAYFLRRRGIDVTVVERTEVAAAASGKAGGFLARDWCTGTPLDALARRSFALHAQLPEDISGDWGYRPMTAYSGFVASDGDARRDAPSALGWLSDGVVIAQRIGTAETTAIVHPRKFTSAVMNAALAQGAELRPGRVTGITRGTDGMTAGGVEIDGDLVEADAVVIAMGPWSLLAAQWMSLPPVYGQRSPSIVYDTAADAPAEALFLESEEDGSAVSIEVFPRADGSTHITALSDIAPLPLDPAAVTPDRDAIARLQTVSERLSPLFRPERIIAQQACFRPVTQDGLPLIGKVPRSDGLYVATGHNVWGILNAPATGEALAELIAEGATREIDLSPFDPARLTPLDPSLLQARLEHHHHHH” it was “not soluble”; in that of “MRYADRVTFVKTTDEQYNPDLGEYTHTEVISITKPCFVMDMGMEKSVQIFGDYQKDRKVIYLKQPYTKAFDYCEYEGRRYKTQANKLGAIVFYLEGDDSIGG”, “not soluble”.

Turning to “MRYCQFEGCSNTTEKGAYCSEHARKSRKKKKPINVYHHDNKSFYRTKEWQDVADFVYEREGGCCQRCGRFVFGRQAHRHHVIPIKKNEMLKLDPNNIRLLCPKCHVIEENEADEKKVFPSYFKK”, the “soluble on expression in E. coli” value was “not soluble”. In the case of “MSAAGVRSTRQRAAISTLLETLDDFRSAQELHDELRRRGENIGLTTVYRTLQSMASSGLVDTLHTDTGESVYRRCSEHHHHHLVCRSCGSTIEVGDHEVEAWAAEVATKHGFSDVSHTIEIFGTCSDCRS” it was “soluble”. In the case of “MSAATPLIVQQAEAEQLLARIDVLQAMRQLFLDLAAGQALQPAQQLVEFPAGRGDFINYLGVLAQEQVYGVKTSPYIVREQGPLVTAWTLLMSMQTGQPLLLCDAARLTTARTAATTAVAVDALAPAEACRLALIGSGPVAHAHLQYVKGLRDWQGVRVHSPCLDERRLQSLRAIDPRAEAAGSLEEALDEADVILLCTSSARAVIDPRQLKRPALVTSISTNAPRAHEVPAESLAAMDVYCDYRHTTPGSAGEMLIAAEQHGWSPEAIRGDLAELLSAQAPRPEYRRPAFFRSIGLGLEDVALANALYRLRQAG” it was “not soluble”; in that of “MSAAVQKRASTNTVAATTYFKPAPSEIAWGKMRFLITDRPNNSSIQSYIEELEKHGARAVVRVCEPTYDTLALKEAGIDVLDWQFSDGSPPPPEVIKSWFQLCMTSFKEHPDKSIAVHCVAGLGRAPVLVAIALIEAGMKYEDAVEMIRTQRRGALNQKQLKFLETYKANGELRRLRGNVDGKQKSCCIQ”, “not soluble”. In the case of “MSADYPRDLIGYGNNPPHPHWPGDARIALSFVLNYEEGGERCVLHGDKESEAFLSEMVAAQPLQGVRHMSMESLYEYGSRAGVWRLLKLFKRRNVPLTVFAVAMAAQRNPEVIRAMVADGHEICSHGYRWIDYQYMDEAQEREHMLEAIRILTELTGQRPVGWYTGRTGPNTRRLVMEEGGFLYDSDTYDDDLPYWDPASTAEKPHLVIPYTLDTNDMRFTQVQGFNNGEQFFQYLKDAFDVLYEEGATAPKMLSIGLHCRLIGRPARMAALERFIQYAQSHDKVWFARREDIARHWHREHPFQETEA” it was “soluble”.
